Km, kcat and kcat/Km data for 6 substances are collected here from PMC7450108, “Pterocarpan synthase (PTS) structures suggest a common quinone methide–stabilizing function in dirigent proteins and proteins with dirigent-like domains” (The Journal of Biological Chemistry, 2020).

The subject of data set [1] is COc1ccc([C@H]2COc3cc(O)ccc3[C@@H]2O)c(O)c1. Kind of data set: medicarpin formation, chiral HPLC (RU-2). Type of data set: biochemical, Glycyrrhiza echinata. The conditions noted are these: 0.1 M sodium phosphate pH 6.6, 30 °C, 5 min, BSA, racemic trans-DMI supplied. From the text:
(§1) medicarpin formation, chiral HPLC (RU-2) on GePTS1

In data set [2] the test system is COc1ccc([C@@H]2COc3cc(O)ccc3[C@@H]2O)c(O)c1. Kind of data set: medicarpin formation, chiral HPLC (RU-2). Type of data set: biochemical, Glycyrrhiza echinata. The conditions noted are these: 0.1 M sodium phosphate pH 6.6, 30 °C, 5 min, BSA, racemic cis-DMI supplied.
Excerpt: as §1

In data set [3] the test system is COc1ccc([C@H]2COc3cc(O)ccc3[C@@H]2O)c(O)c1. Briefly: purified protein. The settings on record: 0.1 M sodium phosphate pH 6.6, 30 °C, 5 min, BSA, racemic trans-DMI supplied, kinetics calculated on (3S,4R) conversion.
Data set [4] has as its system COc1ccc([C@@H]2COc3cc(O)ccc3[C@@H]2O)c(O)c1. Kind of data set: purified protein. The settings on record: 0.1 M sodium phosphate pH 6.6, 30 °C, 5 min, BSA, racemic cis-DMI supplied, kinetics calculated on (3R,4R) conversion.
The mark [5] stands for this setting: kinetics calculated on (3S,4R) conversion.
[6] abbreviates: kinetics calculated on (3R,4R) conversion.
Setting [7] is: (3S,4R) converted, pET100 construct.
Setting [8] is: (3R,4R) converted, pET100 construct.

For the substance GePTS1 (Glycyrrhiza echinata), in data set [1] (setting [5]), the Km was 680 µM, the kcat is 15.9 s⁻¹ and the kcat/Km is 23400 M⁻¹ s⁻¹. In addition, in data set [2] (setting [6]), the Km is 145 µM, the catalytic constant (kcat) is 59.9 s⁻¹ and the kcat/Km was 413000 M⁻¹ s⁻¹.
As for GePTS1 (Glycyrrhiza echinata; D50A), in data set [1] (setting [7]), the Michaelis constant (Km) worked out at 520 µM, the kcat was 0.2 s⁻¹ and the kcat/Km worked out at 370 M⁻¹ s⁻¹. Moreover, in data set [2] (setting [8]), the Michaelis-Menten constant (Km) was 1,175 μM, the kcat was 4.9 s⁻¹ and the kcat/Km was determined as 4180 M⁻¹ s⁻¹.
On to GePTS1 (Glycyrrhiza echinata; D83A), for which, in data set [1] (setting [7]), the Km turned out to be 665 µM, the turnover number (kcat) amounted to 1.3 s⁻¹ and the catalytic efficiency (kcat/Km) worked out at 1960 M⁻¹ s⁻¹. Also, in data set [2] (setting [8]), the Michaelis-Menten constant (Km) was 1,300 μM, the kcat worked out at 6.3 s⁻¹ and the kcat/Km was 4870 M⁻¹ s⁻¹.
GePTS1 (Glycyrrhiza echinata; Y103F): in data set [1] (setting [7]), the Km was 3,320 μM, the kcat was 5.9 s⁻¹ and the kcat/Km came out at 1830 M⁻¹ s⁻¹. In addition, in data set [2] (setting [8]), the Km stood at 555 µM, the kcat amounted to 6.9 s⁻¹ and the kcat/Km was found to be 12300 M⁻¹ s⁻¹.
As to GePTS1 (Glycyrrhiza echinata; Y181F), in data set [1] (setting [7]), the Km is given as 5,665 μM, the catalytic constant (kcat) came out at 4 s⁻¹ and the kcat/Km was 710 M⁻¹ s⁻¹. Moreover, in data set [2] (setting [8]), the Michaelis constant (Km) is 825 µM, the kcat was determined as 5.2 s⁻¹ and the kcat/Km amounted to 6310 M⁻¹ s⁻¹.
PsPTS1 (Lathyrus oleraceus): in data set [3], the Km is 830 µM, the kcat is 3.3 s⁻¹ and the kcat/Km is 3930 M⁻¹ s⁻¹. For the same substance, in data set [4], the Km is 890 µM, the kcat is 50.5 s⁻¹ and the kcat/Km is 56800 M⁻¹ s⁻¹.
